According to article PMC9197560:

Target: mature TGFβ1 produced in Nicotiana benthamiana (human)
Experiment: non-reducing Tricine-PAGE with Western blot; mature TGFβ1 released by HCl, 10% Tricine-PAGE under reducing or non-reducing conditions, anti-TGFβ1 blot

stoichiometry N: 2
Substance: mature TGFβ1 produced in Nicotiana benthamiana (ligand)
